In patent US20250027068:
Substitutions are numbered along the chain they refer to.

B1: PRT-239 (protein)
chain: MEVVEVWPYGQNPNGKTEILSQTEDSESLQRLRDIEDFQAEKKMQNVVYTKWLDGVDVKDHDFRKIVDGGTAYYATPLLNGRGFYDINKDFNRDSLLCSAAVAANMFHYWLDINRDNVDRFLRQNPEKHGIIELPDGQLKLSDFLNTYESDHGYRDKSKLFDYISNNFNGGLWTDKLLDNYINGYGYNKKYGRTIEDPTKNTSKINFFKEVFNEKILTNNHQIRNQNEFSVLLSEALYTGKAIGLSYGPAGLRHSLGHIISVWGADLDADGNVVAIYVTDSDDKKLTIGDERVGLKRYKISTDDNNRLRLTAYEETHNTGGQIRGLWTLDTGKYAWADYFDKTEQTGTDQAEQLEHHHHHH
B2: PRT-231 (protein)
chain: MEVVEVWPYGQNPNGKTEILSQTEDSESLQRLRDIEDFQAEKKMQNVVYTKWLDGVDVKDHDFRKIVDGNIAYYATPLLNGRGFYDINKDFNRDSDKCAAAVAANMFHYWLDINRDNVDRFLRQNPEKHGIIELPDGQLKLSDFLNTYESDHGYRDKSKLFDFISNNFNGPVWTDKLLDNYINGYAYNYKYGRTIEDPTKNTSKINFFKEVFNEKILTNNHSIRNQNEFSVLLSEALYTGKAIGLSYGPAGLRHSLGHIISVWGADLDADGNVVAIYVTDSDDKKLTIGDERVGLKRYKISTDDENRARLTAYEETHNTGGQIRGLWTLDTGKYAWADYFDKTEQTGTDQAEQLEHHHHHH
B3: PRT-236 (protein)
chain: B2 chain with K59D, A308L
B4: PRT-237 (protein)
chain: B2 chain with A72E, A308L
B5: PRT-235 (protein)
chain: B2 chain with A308L, H317D
B6: PRT-234 (protein)
chain: B2 chain with H152D, A308L
B7: PRT-233 (protein)
chain: B2 chain with I113R, A308L
B8: PRT-238 (protein)
chain: B2 chain with N70G, K97L, F163Y, A186G, A308L
B9: PRT-232 (protein)
chain: B2 chain with A308L, Y334E
B10: IdeS (protein)
chain: ANQEIRYSEVTPYHVTSVWTKGVTPPANFTQGEDVFHAPYVANQGWYDITKTFNGKDDLLCGAATAGNMLHWWFDQNKDQIKRYLEEHPEKQKINFNGEQMFDVKEAIDTKNHQLDSKLFEYFKEKAFPYLSTKHLGVFPDHVIDMFINGYRLSLTNHGPTPVKEGSKDPRGGIFDAVFTRGDQSKLLTSRHDFKEKNLKEISDLIKKELTEGKALGLSHTYANVRINHVINLWGADFDSNGNLKAIYVTDSDSNASIGMKKYFVGVNSAGKVAISAKEIKEDNIGAQVLGLFTLSTGQDSWNQTN
B11: PRT-243 (protein)
chain: MVTSVWTKGVTPPANFTQGEDVFHAPYVANQGWYDITKLFNGKDDLLCGAATAGNMLHWWFDQNKDQIKRYLEEHPEKQKINFNGEQMFDVKEAIDTKNHQLDSKLFDYFKEKAFPNLSTKHLGVFPDHVIDMFINGYRLSLLNHGPTPVKEGSKDPRGGIFDAVFTRGDQSKLLTSRHDFKEKNLKEISDLIKKELTEGKALGLSHTYANGRINHVINLWGADFDSNGNLKAIYVTDSDSNPSIGMKKYFVGVNSSGKVAISAKEIKEDNIGAQVLGLFTLSTGQDSWNQTN
B12: PRT-241 (protein)
chain: B11 chain with L39T, D108E, G212V, P243A
B13: PRT-251 (protein)
chain: MVTSVWTKGVTPPTNFTYGEDVLHAPYVANQGWYDITKTFNGKDDLLCGAATAGNMLHWWFDQNKEQIENYLKKHPEKQKINFNGEQMFDVKEAIDTKDSQLDSKLFEYFLEKAFPNLSTKHLGVFPDHVIDMFINGYRLSLLNHGPTPVKRGSKDPRGGIFDAVFTRGDQSKLLTNRHDFKEKTLKEISDLIKQELTEGKALGISHTYANVRINHVINLWGADFDAEGNLEAIAVTDSDSNASIGMKKYFVGVNSSGKVAISAKEIEEDNIGAQVLGLFTLSTGQDIWNQTN
B14: PRT-259 (protein)
chain: B13 chain with D45N, M88L, L111K, P157K, D170V, A235Y, S241T
B15: IdeZ2 (protein)
chain: EVVEVWPYGQNPNGKTEILSQTEDSESLQRLRDIEDFQAEKKMQNVVYTKWLDGVDVKDHDFRKIVDGNIAYYATPLLNGRGFYDINKDFNRDSDKCAAAVAANMFHYWLDINRDNVDRFLRQNPEKHGIIELPDGQLKLSDFLNTYESDHGYRDKSKLFDFISNNFNGPVWTDKLLDNYINGYAYNYKYGRTIEDPTKNTSKINFFKEVFNEKILTNNHSIRNQNEFSVLLSEALYTGKAIGLSYGPAGLRHSLGHIISVWGADLDADGNVVAIYVTDSDDKKLTIGDERVGLKRYKISTDDENRLRLTAYEETHNTGGQIRGLWTLDTGKYAWADYFDKTEQTGTDQAEQ
B16: Ide85 (protein)
chain: MANQEIRYSEVTPYHVTSVWTKGVTPPAKFTQGEDVFHAPYVANQGWYDITKTFNGKDDLLCGAATAGNMLHWWFDQNKEKIEAYLKKHPDKQKIMFGDQELLDVRKVINTKGDQTNSELFNYFRDKAFPGLSARRIGVMPDLVLDMFINGYYLNVYKTQTTDVNRTYQEKDRRGGIFDAVFTRGDQSKLLTSRHDFKEKNLKEISDLIKKELTEGKALGLSHTYANVRINHVINLWGADFDSNGNLKAIYVTDSDSNASIGMKKYFVGVNSAGKVAISAKEIKEDNIGAQVLGLFTLSTGQDSWNQTN
B17: PRT-240 (protein)
chain: MEVVEVWPYGQNPNGKTEILSQTEDSESLQRLRDIEDFQAEKKMQNVVYTKWLDGVDVKDHDFRKIVDGDYAYYATPLLNGRGFYDINKDFNRDSDKCAAAVAANMFHYWLDINRDNVDRFLRQNPEKHGIIELPDGQLKLSDFLNTYESDHGYRDKSKLFDFISNAFNGPVWADKLLDNYINGYGYNKKYGRTIEDPTKNTSKFNFFKEVFNEKILTNNHQIRNQNEFSVLLSEALYTGKAIGLAYGPGGLRHSLGHIISVWGADLDADGNVVAIYVTDSDDKKLTIGDERVGLKRYKISTDDNNRLRLTTYEETHNTGAQIRGLETLDTGKYAWADYFDKTEQTGTDQAEQLEHHHHHH
B18: IdeZ (protein)
chain: DDYQRNATEAYAKEVPHQITSVWTKGVTPLTPEQFRYNNEDVIHAPYLAHQGWYDITKAFDGKDNLLCGAATAGNMLHWWFDQNKTEIEAYLSKHPEKQKIIFNNQELFDLKAAIDTKDSQTNSQLFNYFRDKAFPNLSARQLGVMPDLVLDMFINGYYLNVFKTQSTDVNRPYQDKDKRGGIFDAVFTRGDQTTLLTARHDLKNKGLNDISTIIKQELTEGRALALSHTYANVSISHVINLWGADFNAEGNLEAIYVTDSDANASIGMKKYFVGINAHGHVAISAKKIEGENIGAQVLGLFTLSSGKDIWQKLS
B19: PRT-22 (protein)
chain: MANQEIRYSEVTPYHVTSVWTKGVTPPANFTQGEDVFHAPYVANQGWYDITKTFNGKDDLLCGAATAGNMLHWWFDQNKDQIERYLKEHPEKQKINFNGEQMFDVKEAIDTKNSQLDSKLFEYFKEKAFPYLSTKHLGVFPDHVIDMFINGYRLSLTNHGPTPVKEGSKDPRGGIFDAVFTRGDQSKLLTSRHDFKEKNLKEISDLIKKELTEGKALGLSHTYANVRINHVINLWGADFDSNGNLKAIYVTDSDSNASIGMKKYFVGVNSAGKVAISAKEIKEDNIGAQVLGLFTLSTGQDIWNQTN

How the values were obtained:
[1] = biological target: pooled human IgG (human IgG1,2,3 and 4)

Protein | Enzyme Activity Endpoint Assay (purified): Fab'2 (pooled human IgG) [ng/µL] | Enzyme Activity Endpoint Assay (purified): Fc (pooled human IgG) [ng/µL] | Enzyme Activity Endpoint Assay (purified): IgG (pooled human IgG) [ng/µL] | Enzyme Activity Endpoint Assay (purified): scIgG (pooled human IgG) [ng/µL] | further results
B1 | 49 | 269 | 689 | 360 | 
B2 | 176 | 388 | 465 | 313 | 
B3 | 294 | 615 | 594 | 472 | 
B4 | 828 | 415 | 685 | 461 | 
B5 | 116 | 448 | 711 | 483 | 
B6 | 88 | 376 | 640 | 432 | 
B7 | 94 | 376 | 596 | 415 | 
B8 | 0 | 81 | 1610 | 28 | 
B9 | 40 | 283 | 624 | 393 | 
B10 | 1360 | 524 | 0 | 0 | 
B11 |  |  |  |  | Enzyme Activity Endpoint Assay: Fab′2 [1]: 967 ng/µL; Enzyme Activity Endpoint Assay: Fc [1]: 430 ng/µL; Enzyme Activity Endpoint Assay: IgG [1]: 25 ng/µL; Enzyme Activity Endpoint Assay: scIgG [1]: 0 ng/µL
B12 | 731 | 406 | 0 | 0 | 
B13 |  |  |  |  | Enzyme Activity Endpoint Assay: Fab′2 [1]: 1070 ng/µL; Enzyme Activity Endpoint Assay: Fc [1]: 444 ng/µL; Enzyme Activity Endpoint Assay: IgG [1]: 0 ng/µL; Enzyme Activity Endpoint Assay: scIgG [1]: 0 ng/µL
B14 |  |  |  |  | Enzyme Activity Endpoint Assay: Fab′2 [1]: 1100 ng/µL; Enzyme Activity Endpoint Assay: Fc [1]: 453 ng/µL; Enzyme Activity Endpoint Assay: IgG [1]: 0 ng/µL; Enzyme Activity Endpoint Assay: scIgG [1]: 0 ng/µL
B15 | 1340 | 566 | 0 | 0 | 
B16 | 1130 | 615 | 0 | 0 | 
B17 | 0 | 82 | 1400 | 36 | 
B18 | 1290 | 481 | 0 | 0 | 
B19 |  |  |  |  | Enzyme Activity Endpoint Assay: Fab′2 (pooled human IgG): 37 ng/µL; Enzyme Activity Endpoint Assay: Fc (pooled human IgG): 116 ng/µL; Enzyme Activity Endpoint Assay: IgG (pooled human IgG): 19 ng/µL; Enzyme Activity Endpoint Assay: scIgG (pooled human IgG): 23 ng/µL
